US20210101970A1 (Pfizer, published 2021)
One block for each binder: values may come before it.

Key:
CXCR2 = molecular target: T1, CXCR2 (human, UniProt P25025 1-360); test: flow cytometry (GMFI) on fixed CXCR2 cells, chimeric antibody, goat anti-human PE
T1 construct: whole, on cells
T1 sequence (looked up): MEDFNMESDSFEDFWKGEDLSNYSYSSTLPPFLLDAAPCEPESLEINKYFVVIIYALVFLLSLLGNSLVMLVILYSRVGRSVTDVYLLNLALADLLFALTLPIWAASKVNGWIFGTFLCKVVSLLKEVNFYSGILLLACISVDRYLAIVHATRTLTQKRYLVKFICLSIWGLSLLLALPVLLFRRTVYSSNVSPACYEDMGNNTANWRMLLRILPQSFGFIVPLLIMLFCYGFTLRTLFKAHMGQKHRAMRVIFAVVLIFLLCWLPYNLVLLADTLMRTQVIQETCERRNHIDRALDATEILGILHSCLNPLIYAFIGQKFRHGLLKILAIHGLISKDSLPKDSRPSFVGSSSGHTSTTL
Experimental: To determine the specificity of the antibodies for CXCR5, the binding of the antibodies to cells expressing other […] was assessed. Briefly, FlowCellect chemokine receptor cell lines expressing CXCR1, CXCR2, or CXCR3 (EMD Millipore, Billerica, Mass.), and Jurkats (ATCC, Manassas, Va.), which express CXCR4, were stained with 5 μg/ml or 10 μg/ml of each anti-CXCR5 chimeric antibody. The cells were then incubated with goat anti-human conjugated with PE (Southern Biotech, Birmingham, Ala.) prior to analysis by flow cytometry using a FACSVerse Analyzer (BD Biosciences, Franklin Lakes, N.J.).

cynomolgus monkey CXCR5 = molecular target: T2, cynomolgus monkey CXCR5 (cynomolgus monkey, UniProt P32302 1-372 (human entry)); test: flow cytometry on cynoCXCR5-300.19 cells, fucosylated chimeric antibody
T2 construct: also called cynoCXCR5; NHP CXCR5
T2 chain: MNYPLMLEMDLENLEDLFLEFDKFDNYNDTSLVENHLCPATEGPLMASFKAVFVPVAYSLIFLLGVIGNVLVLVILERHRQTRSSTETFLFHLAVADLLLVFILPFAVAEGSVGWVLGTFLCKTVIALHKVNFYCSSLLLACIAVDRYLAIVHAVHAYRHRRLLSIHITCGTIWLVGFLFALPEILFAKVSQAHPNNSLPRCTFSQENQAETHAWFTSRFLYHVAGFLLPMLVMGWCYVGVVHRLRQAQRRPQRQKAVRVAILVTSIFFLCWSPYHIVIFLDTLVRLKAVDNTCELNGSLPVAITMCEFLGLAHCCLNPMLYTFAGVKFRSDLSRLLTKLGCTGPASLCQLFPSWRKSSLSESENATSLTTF

XC278 = molecular target: T3, XC278 (human, UniProt P32302 2-372); test: flow cytometry on HEK-293T cells transiently expressing the FLAG-tagged mutein; ratio of gMFI of the antibody to gMFI of anti-FLAG PE
T3 construct: also called hCXCR5 L11T
T3 sequence: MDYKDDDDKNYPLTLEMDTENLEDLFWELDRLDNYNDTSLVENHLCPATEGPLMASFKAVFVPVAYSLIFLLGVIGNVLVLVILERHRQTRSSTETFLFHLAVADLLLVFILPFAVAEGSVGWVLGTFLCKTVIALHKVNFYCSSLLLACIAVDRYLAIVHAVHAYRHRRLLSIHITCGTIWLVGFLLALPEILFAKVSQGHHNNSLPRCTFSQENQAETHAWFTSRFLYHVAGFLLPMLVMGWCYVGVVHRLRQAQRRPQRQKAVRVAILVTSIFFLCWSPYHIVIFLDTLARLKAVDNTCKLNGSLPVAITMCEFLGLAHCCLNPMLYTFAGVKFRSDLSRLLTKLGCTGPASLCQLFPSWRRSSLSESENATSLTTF
Experimental: The cells were analyzed by flow cytometry using an Accuri (BD Biosciences Franklin Lakes, N.J.). The geometric mean fluorescence intensity (gMFI) was determined and the ratio for the gMFI of each CXCR5 antibody and anti-flag was calculated.

human CXCR5 [1] = molecular target: T4, human CXCR5 (human, UniProt P32302 1-372); test: cell-based or functional assay
T4 sequence: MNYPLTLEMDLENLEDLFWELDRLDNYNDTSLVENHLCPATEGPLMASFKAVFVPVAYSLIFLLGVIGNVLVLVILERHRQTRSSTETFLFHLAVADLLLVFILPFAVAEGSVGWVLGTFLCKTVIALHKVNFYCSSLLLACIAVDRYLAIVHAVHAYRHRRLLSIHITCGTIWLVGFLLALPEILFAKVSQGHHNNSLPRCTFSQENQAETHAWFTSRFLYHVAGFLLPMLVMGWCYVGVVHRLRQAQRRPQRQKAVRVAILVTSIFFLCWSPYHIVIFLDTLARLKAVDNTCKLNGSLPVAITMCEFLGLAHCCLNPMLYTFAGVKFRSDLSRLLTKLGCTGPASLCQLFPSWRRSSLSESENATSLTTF

human CXCR5 [2] = molecular target: T4, human CXCR5; test: flow cytometry, B cells from human PBMCs (FIG. 5); comparator 2C9

EC50 (cynomolgus monkey CXCR5): 0.0242 nM
B1: Chimeric 11G2 (antibody, human IgG1, kappa, V domains shown)
VH: EVKLVESGGGLVQPGGSLRLSCATSGFTFTDFYMSWVRQPPGRALEWLGFIRNKANGYTTEYSASVKGRFTISRDNSQSILYLQMNTLRAGDSATYYCVRVYGSTLHYWGQGTILTVSS
VL: DVVVTQSPDSLAVSLGQRATISCRASESVEYHGTSLMHWYQQKPGQPPKLLIYAASNVESGVPARFSGSGSGTDFSLNIHPVEEGDIAMYFCQQSRKVPWTFGGGTKLEIKR
notes: mouse V regions on human IgG1/kappa; also called 11G2 (chimeric)
binding result (CXCR2): no binding (tested: 5 or 10 µg/ml (not on the sheet))

B2: Afucosyl humanized 11G2 154/155 (antibody, human IgG1, kappa, V domains shown)
VH: EVQLVESGGGLVQPGGSLRLSCAASGFTFTDFYMSWVRQAPGKGLEWVGFIRNKANGYTTEYSASVKGRFTISRDNAKNSLYLQMNSLRAEDTAVYYCARVYGSTLHYWGQGTLVTVSS
VL: DIQMTQSPSSLSASVGDRVTITCRASESVEYHGTSLMHWYQQKPGKAPKLLIYAASNVESGVPSRFSGSGSGTDFTLTISSLQPEDFATYYCQQSRKVPWTFGQGTKVEIKR
modifications: afucosylated Fc glycan (Asn297)
notes: also called afucosyl h11G2 XC154/XC155; afucosylated h11G2 VL XC154/VH XC155
binding result (XC278): no binding (tested: 1 or 3 µg/ml (not on the sheet))

% Inhibition CXCL13 (human CXCR5 [1]): 114%
EC50, stimulation of CXCL13-inhibited cAMP production (human CXCR5 [1]): 0.793 nM
EC50 (human CXCR5 [2]): 0.0624 nM
B3: 2C9 (reference antibody) (antibody, human IgG1, kappa, V domains shown)
VH: EVQLVESGGGLVKPGGSLRLSCAASGFTFSTNAMNWVRQAPGKGLERVARIRSKSNNYATYYADSVKDRFTISRDDSKNTLYLQMNSLKTEDTAVYYCVTMIPFAYWGQGTLVTVSS
VL: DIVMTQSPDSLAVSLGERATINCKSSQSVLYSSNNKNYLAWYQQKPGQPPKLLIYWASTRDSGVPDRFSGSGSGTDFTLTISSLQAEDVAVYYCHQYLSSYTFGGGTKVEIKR
notes: fucosylated
